Data on 17 sequences can be found in the DeepSol protein solubility set.

The nature of this data set: soluble on expression in E. coli; label from the status in PepcDB or PDB records.
In the case of “KSIHDAGQRVQIYFSDAAGLVAGRTTIRYQGLEVGMVRDINLSEDLGSIYVDADIYPEATKLLNDKTRFWLVKPTASLTGVSGLDALVSGNYISIQPGDGQEFETTFHALDSAPTDLRVSQGLNIKLKSRDLGGVSIGSQIVYKKIPIGAVYSYQLDEDAKSITIQANIQEQYRHIINDRSRFWNVSGIGASIGFEGVDVRLESMSALLGGAIAVDSPDDGEPVEENTEFRLYKDLKTAGRGIAIKIALPDDNKVSSEGAPIMYRGIEIGQVTDLSLSEGREVILASAAIQPAFSDMLTTGTRFVLEEAKVSLSGVENIANLVRGNFLTIVPGDGERSRRFTAIRKNVFNQQQEKSIAIRLISDNSFGLDSGAN”, the “soluble on expression in E. coli” value is given as “not soluble”.
For “KYRSVFDIIGPVMIGPSSSHTAGAARIGRVARSLFGREPERIIVSFYGSFAETYKGHGTDVAIIGGLLDFDTFDERIKTAIQIAEAKGIDIEFRVEDAVPVHPNTAKITISDEKGELELTGISIGGGKIEITELNGFELRLSGNHPAILVVHNDKFGTIAGVANVLAKFSINVGHMEVARKDIGQLALMTIEVDQNIDDHILDELSKLPN” the value was “not soluble”; for “LAGIAGVDRDPPGWPQHSHLLAGDPERFRHQLQRAETTNSIECFVAEWHHAGVAADMTRPWPTVVQGGAGQRRRRDVEPDRKTPVRWMSGQRLSEITWPTTDIEHSVGAAEVQRHRGAVPLGSGGDAAGKVEGGRTPQPFVQP”, “not soluble”; for “LALHKVIMVGSGGVGKSALTLQFMYDEFVEDYEPTKADSYRKKVVLDGEEVQIDILDTAGLEDYAAIRDNYFRSGEGFLLVFSITEHESFTATAEFREQILRVKAEEDKIPLLVVGNKSDLEERRQVPVEEARSKAEEWGVQYVETSAKTRANVDKVFFDLMREIRTKKMSENK”, “soluble”.
For “LALYRCAADVQAALDYYFDSETEREDTLEAVIGQFEVKAQSVIAYIKNQEITEKMLEGHIRRMTGKLKAVKAQNQSLKDYLARNMQAAGITEIKADDGTFKASFRKSEAVVILDEAQIPAEFMREAVKTEPDKTAIRKAIESGRQVAGAKIEGRKNLQIR” the value was “not soluble”.
The entry for “LDEYQVSQDRLVESEERYRQLVESAPDAVLIHCDGRYVFANPAALRLYGADTADQLLGREITDFVHPNSRQVVAERIKLLYQERSPAPLCEQQIVRLDGTVVDVEVVGIPYSHQGRPAVQAVLREIT” is “not soluble”; for “LEIPTSTVVKETLTQLSAHRALLTSNETLRLPVPTHKNHQLCIGEIFQGLDILKNQTVRGGTVERLFQNLSLIKKYIDRQKEKCGEERRRTRQFLDYLQEFLGVLSTEWAIEG” it is “soluble”.
For the sequence “LESLEVMIMLDTLRAINNPLNDYALVALLRSPMFNFNEDDLTRIAVQADKGQFYDKLLAAHTKSGLHPEVVMQGLEAKLTLFTETLADWRDYSKCHSIYDLIWKIYNDRFYYDYVGGLPRAEQRQANLYALALRANAYEKTGFKGLSRFIGMI”, the “soluble on expression in E. coli” value is “not soluble”.
Regarding “LETSWIKPGQASWEWWNDAAPYGPDVNFVSGYNLETYKYYIDFASKYGIRYIIMDEGWAKSTRDPYTPNAKVDVHELIRYAEKKNVGIVLWLTWLTVENNMDLFKTFSEWGVKGVKIDFMDRSDQWMMNFYERVAAEAAKYKLFVDFHGSVSPKGLEYKYPNVLSYEGVRGMEQMGGATPDNSIFMPFMRNAVGAMD”, the “soluble on expression in E. coli” value was “not soluble”.
Take “LGEALNIYTPHRIVAFDNSNIQGTNPVSAMIVFIDGKPYKKEYRKYKIKTVTGPDDYGSMREVVRRRYTRVLRENLPLPDLIIIDGGKGQINAARDVIENELGLDIPIAGLAKDEKHRTSNLLIGDPLEVAYLERNSQEFYLLQRIQDEVHRFAI”: the “soluble on expression in E. coli” value is “not soluble”.
The entry for “LGTQMGIQTPIRIEAFDNSNIQGVDPVSAMVTFVDGKPDKKNYRKYKIKTVKGPDDYKSMREVVRRRYSRVLNEGLPLPDLIIVDGGKGHMNGVIDVLQNELGLDIPVAGLQKNDKHQTSELLYGASAEIVPLKKNSQAFYLLHRIQDEVHRFAI” is “not soluble”.
For “LHPEPQSQHELGNVFLKFKDKFCVYEEYCSNHEKALRLLVELNKIPTVRAFLLSCMLLGGRKTTDIPLEGYLLSPIQRICKYPLLLKELAKRTPGKHPDHPAVQSALQAMKTVCSNINETKRQMEKLEALEQLQSHIEGWEGSNLTDICTQLLLQGTLLKISAGNIQERAFFLFDNLLVYCKRKSRVTGSKKSTKRTKSINGSLYIFRGRINTEVMEVENVEDGTADYHSNGYTVTNGWKIHNTAKNKWFVCMAKTAEEKQKWLDAIIREREQRESLKLGMERDAYVMIAEKGEKLYHMMMNKKVNLIKDRRRKLSTVPKCFLGNEFVAWLLEIGEISKTEEGVNLGQALLENGIIHHVSDKHQFKNEQVMYRFRYDDGTYKARSELEDIMSKGVRLYCRLHSLYTPVIKDRDYHLKTYKSVLPGSKLVDWLLAQGDCQTREEAVALGVGLCNNGFMHHVLEKSEFRDESQYFRFHADEEMEGTSSKNKQLRNDFKLVENILAKRLLILPQEEDYGFDIEEKNKAVVVKSVQRGSLAEVAGLQVGRKIYSINEDLVFLRPFSEVESILNQSFCSRRPLRLLVATKAKEIIKIPDQPDTLCFQIRGAAPPYVYAVGRGSEAMAAGLCAGQCILKVNGSNVMNDGAPEVLEHFQAFRSRREEALGLYQWIYHTHEDAQEARASQEASTEDPSGEQAQEEDQADSAFPLLSLGPRLSLCEDSPMVTLTVDNVHLEHGVVYEYVSTAGVRCHVLEKIVEPRGCFGLTAKILEAFAANDSVFVENCRRLMALSSAIVTMPHFEFRNICDTKLESIGQRIACYQEFAAQLKSRVSPPFKQAPLEPHPLCGLDFCPTNCHINLMEVSYPKTTPSVGRSFSIRFGRKPSLIGLDPEQGHLNPMSYTQHCITTMAAPSWKCLPAAEGDPQGQGLHDGSFGPASGTLGQEDRGLSFLLKQEDREIQDAYLQLFTKLDVALKEMKQYVTQINRLLSTITEPTSGGSCDTSLAEEASSLPLVSEESEMDRSDHGGIKKVCFKVAEEDQEDSGHDTMSYRDSYSECNSNRDSVLSYTSVRSNSSYLGSDEMGSGDELPCDMRIPSDKQDKLHGCLEHLFNQVDSINALLKGPVMSRAFEETKHFPMNHSLQAIHPFTHSATHAPINPSVHPPLHPTTHLPSIHPPTHPPTHPSIYPPTHPSIHLLVCPSIHPSLLPSVCPLFHPSTHSFIIYLSIHASVHPVNNFPEPACARPCTGHWRP” the value was “soluble”; for “LIFTCDKNKLQESIAIAQKAITGKSTMPILEGLYIEASENIVTIIGSDKDVSIETKFEADVTEPGKLVVDAKIFGEIIRKLPNDKIKIETVSEEAIRITCQKSVFDLLHMNAEDFPSLPKINENMIFSINQGILKNMIKGTSFAIAQDETRPILQGILFEIKDSKLNLVALDGYRLAIRTENIDTNNTINAVIPGKTLNEVAKILEDSEEIVNITFTPNHILFNMGDTKVISRLLEGEFIKYDALLPKEHKLQIEVDKQTLQNGIERASLMAKEGNSNLVKFDITDENIVITSNSQLGKVREEVTIKLQGDEIQIAFNSKYLLDVLKNMEEDKIELRMTSSISPCIIRNKNNDLCEYLVLPVRIAR”, “soluble”; for “LKEDKEKYPIFVFIHKDKVTISIDTTGDALHKRGYREKANKAPIRETLAAGLIYLTPWKAGRVLVDPMCGSGTILIEAAMIGINMAPGLNREFISEKWRTLDKKIWWDVRKDAFNKIDNESKFKIYGYDIDEESIDIARENAEIAGVDEYIEFNVGDATQFKSEDEFGFIITNPPYGERLEDKDSVKQLYKELGYAFRKLKNWSYYLITSYEDFEYEFGQKADKKRKLYNGMLKTNFFQYPGPKPPRNNK”, “not soluble”.
“LKFPKVAVVGSRACSKQGAKSVEKVIQGLENELVIVSGLAKGIDTAAHMAALQNGGKTIAVIGTGLDVFYPKANKRLQDYIGNDHLVLSEYGPGEQPLKFHFPARNRIIAGLCRGVIVAEAKMRSGSLITCERAMEEGRDVFAIPGSILDGLSDGCHHLIQEGAKLVTSGQDVLAEFEF”: the “soluble on expression in E. coli” value was “not soluble”.
Turning to “LLTAAYAAKEHLIMTTPYFVPSDDLLHAICTAAQRGVDVSIILPRKNDSLLVGWASRAFFTELLAAGVKIYQFEGGLLHTKSVLVDGELSLVGTVNLDMRSLWLNFEITLVIDDAGFGSDLAAVQDDYISRSRLLDARLWLKRPLWQRIAERLFYFFSPLL”, the “soluble on expression in E. coli” value is on record as “not soluble”.
The entry for “LMGDDKVKKEVGRASWKYFHTLLARFPDEPTPEEREKLHTFIGLYAELYPCGECSYHFVKLIEKYPVQTSSRTAAAMWGCHIHNKVNEYLKKDIYDCATILEDYDCGCSDSDGKRVS” is “soluble”.
